{
  "source": "paper PMC6662615",
  "about": "(Biochemistry, 2019)",
  "proteins": {"B1": {"name": "recombinant human αB-crystallin (natural protein, UniProt P02511 1-175, looked up)", "chain": "MDIAIHHPWIRRPFFPFHSPSRLFDQFFGEHLLESDLFPTSTSLSPFYLRPPSFLRAPSWFDTGLSEMRLEKDRFSVNLDVKHFSPEELKVKVLGDVIEVHGKHEERQDEHGFISREFHRKYRIPADVDPLTITSSLSSDGVLTVNGPRKQVSGPERTIPITREEKPAVTAAPKK"}},
  "target": "the molecule itself",
  "experiment": "dynamic light scattering",
  "data": [
    {"protein": "B1", "values": [
      {"measurement": "binding result", "value": "binds"}
    ]}
  ]
}
